Test results taken from patent US20140087995A1 (published 2014).
Numbered stars: 1 amine (or outer) side, 2 acyl side, 3 side chain; on linkers, the order of the positions; unused ones are H or OH. Bridge positions count the residues as written; N and C are the ends. Side chains are listed from the residue outwards. Ends that are not written are not given here. * marks the point of attachment. C20 diacid = O=C(O)CCCCCCCCCCCCCCCCCCC(=O)*; γGlu = O=C(O)[C@H](CCC(=O)[*:2])N[*:1]; AEEA = NCCOCCOCC(=O)O

T1: human calcitonin receptor (human, UniProt P30988 25-474)
T1 sequence (looked up): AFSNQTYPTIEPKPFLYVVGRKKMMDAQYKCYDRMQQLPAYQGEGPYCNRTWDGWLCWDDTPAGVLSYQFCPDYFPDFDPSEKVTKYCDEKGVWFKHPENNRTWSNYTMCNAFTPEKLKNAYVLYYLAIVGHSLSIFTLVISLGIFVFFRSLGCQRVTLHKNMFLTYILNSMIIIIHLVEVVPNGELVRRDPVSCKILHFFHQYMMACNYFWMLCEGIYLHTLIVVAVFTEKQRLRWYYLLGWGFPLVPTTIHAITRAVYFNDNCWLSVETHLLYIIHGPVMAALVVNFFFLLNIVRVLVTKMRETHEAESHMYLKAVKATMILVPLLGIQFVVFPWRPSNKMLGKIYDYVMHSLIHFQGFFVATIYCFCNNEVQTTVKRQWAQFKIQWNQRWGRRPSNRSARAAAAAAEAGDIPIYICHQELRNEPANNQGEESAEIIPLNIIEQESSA


Target: T1, human calcitonin receptor
Experiment: cell-based or functional assay

Binder	hCTR funct. EC50 [nM]	Ratio hCT/hAmylin funct.
K([γGlu-C20 diacid])RCNTATCATQRLANFLRHSSPNFGAIPSSTNVGSHTY-NH2 (disulfide 3-8; N-terminus assumed; SMILES CC[C@H](C)[C@H](NC(=O)[C@H](C)NC(=O)CNC(=O)[C@H](Cc1ccccc1)NC(=O)[C@H](CC(N)=O)NC(=O)[C@@H]1CCCN1C(=O)[C@H](CO)NC(=O)[C@H](CO)NC(=O)[C@H](Cc1c[nH]cn1)NC(=O)[C@H](CCCNC(=N)N)NC(=O)[C@H](CC(C)C)NC(=O)[C@H](Cc1ccccc1)NC(=O)[C@H](CC(N)=O)NC(=O)[C@H](C)NC(=O)[C@H](CC(C)C)NC(=O)[C@H](CCCNC(=N)N)NC(=O)[C@H](CCC(N)=O)NC(=O)[C@@H](NC(=O)[C@H](C)NC(=O)[C@@H]1CSSC[C@H](NC(=O)[C@H](CCCNC(=N)N)NC(=O)[C@@H](N)CCCCNC(=O)CC[C@H](NC(=O)CCCCCCCCCCCCCCCCCCC(=O)O)C(=O)O)C(=O)N[C@@H](CC(N)=O)C(=O)N[C@@H]([C@@H](C)O)C(=O)N[C@@H](C)C(=O)N[C@@H]([C@@H](C)O)C(=O)N1)[C@@H](C)O)C(=O)N1CCC[C@H]1C(=O)N[C@@H](CO)C(=O)N[C@@H](CO)C(=O)N[C@H](C(=O)N[C@@H](CC(N)=O)C(=O)N[C@H](C(=O)NCC(=O)N[C@@H](CO)C(=O)N[C@@H](Cc1c[nH]cn1)C(=O)N[C@H](C(=O)N[C@@H](Cc1ccc(O)cc1)C(N)=O)[C@@H](C)O)C(C)C)[C@@H](C)O, analogue of human amylin, extended by Lys at the N-terminus; also called compound 44)	4.75	
{C20 diacid-γGlu}-GRCNTATCATQRLANFLRHSSPNFGAIPSSTNVGSNTY-NH2 (disulfide 3-8; SMILES CC[C@H](C)[C@H](NC(=O)[C@H](C)NC(=O)CNC(=O)[C@H](Cc1ccccc1)NC(=O)[C@H](CC(N)=O)NC(=O)[C@@H]1CCCN1C(=O)[C@H](CO)NC(=O)[C@H](CO)NC(=O)[C@H](Cc1c[nH]cn1)NC(=O)[C@H](CCCNC(=N)N)NC(=O)[C@H](CC(C)C)NC(=O)[C@H](Cc1ccccc1)NC(=O)[C@H](CC(N)=O)NC(=O)[C@H](C)NC(=O)[C@H](CC(C)C)NC(=O)[C@H](CCCNC(=N)N)NC(=O)[C@H](CCC(N)=O)NC(=O)[C@@H](NC(=O)[C@H](C)NC(=O)[C@@H]1CSSC[C@H](NC(=O)[C@H](CCCNC(=N)N)NC(=O)CNC(=O)CC[C@H](NC(=O)CCCCCCCCCCCCCCCCCCC(=O)O)C(=O)O)C(=O)N[C@@H](CC(N)=O)C(=O)N[C@@H]([C@@H](C)O)C(=O)N[C@@H](C)C(=O)N[C@@H]([C@@H](C)O)C(=O)N1)[C@@H](C)O)C(=O)N1CCC[C@H]1C(=O)N[C@@H](CO)C(=O)N[C@@H](CO)C(=O)N[C@H](C(=O)N[C@@H](CC(N)=O)C(=O)N[C@H](C(=O)NCC(=O)N[C@@H](CO)C(=O)N[C@@H](CC(N)=O)C(=O)N[C@H](C(=O)N[C@@H](Cc1ccc(O)cc1)C(N)=O)[C@@H](C)O)C(C)C)[C@@H](C)O, analogue of human amylin, extended by Gly at the N-terminus; also called compound 46) [N^-1-[(4S)-4-carboxy-4-(19-carboxynonadecanoylamino)butanoyl]-Gly[Arg1,Arg17,Pro21,Pro27]-h-amylin]	0.899	
K([AEEA-γGlu-C20 diacid])CNTATCATQRLANFLRHSSPNFGAIPSSTNVGSNTY-NH2 (disulfide 2-7; N-terminus assumed; SMILES CC[C@H](C)[C@H](NC(=O)[C@H](C)NC(=O)CNC(=O)[C@H](Cc1ccccc1)NC(=O)[C@H](CC(N)=O)NC(=O)[C@@H]1CCCN1C(=O)[C@H](CO)NC(=O)[C@H](CO)NC(=O)[C@H](Cc1c[nH]cn1)NC(=O)[C@H](CCCNC(=N)N)NC(=O)[C@H](CC(C)C)NC(=O)[C@H](Cc1ccccc1)NC(=O)[C@H](CC(N)=O)NC(=O)[C@H](C)NC(=O)[C@H](CC(C)C)NC(=O)[C@H](CCCNC(=N)N)NC(=O)[C@H](CCC(N)=O)NC(=O)[C@@H](NC(=O)[C@H](C)NC(=O)[C@@H]1CSSC[C@H](NC(=O)[C@@H](N)CCCCNC(=O)COCCOCCNC(=O)CC[C@H](NC(=O)CCCCCCCCCCCCCCCCCCC(=O)O)C(=O)O)C(=O)N[C@@H](CC(N)=O)C(=O)N[C@@H]([C@@H](C)O)C(=O)N[C@@H](C)C(=O)N[C@@H]([C@@H](C)O)C(=O)N1)[C@@H](C)O)C(=O)N1CCC[C@H]1C(=O)N[C@@H](CO)C(=O)N[C@@H](CO)C(=O)N[C@H](C(=O)N[C@@H](CC(N)=O)C(=O)N[C@H](C(=O)NCC(=O)N[C@@H](CO)C(=O)N[C@@H](CC(N)=O)C(=O)N[C@H](C(=O)N[C@@H](Cc1ccc(O)cc1)C(N)=O)[C@@H](C)O)C(C)C)[C@@H](C)O, analogue of human amylin; also called compound 41)	4.35	
K([γGlu-γGlu-C20 diacid])CNTATCATQRLADFLRHSSPNFGAPLSSTNVGSDTY-NH2 (disulfide 2-7; N-terminus assumed; SMILES CC(C)C[C@H](NC(=O)[C@H](CCCNC(=N)N)NC(=O)[C@H](CCC(N)=O)NC(=O)[C@@H](NC(=O)[C@H](C)NC(=O)[C@@H]1CSSC[C@H](NC(=O)[C@@H](N)CCCCNC(=O)CC[C@H](NC(=O)CC[C@H](NC(=O)CCCCCCCCCCCCCCCCCCC(=O)O)C(=O)O)C(=O)O)C(=O)N[C@@H](CC(N)=O)C(=O)N[C@@H]([C@@H](C)O)C(=O)N[C@@H](C)C(=O)N[C@@H]([C@@H](C)O)C(=O)N1)[C@@H](C)O)C(=O)N[C@@H](C)C(=O)N[C@@H](CC(=O)O)C(=O)N[C@@H](Cc1ccccc1)C(=O)N[C@@H](CC(C)C)C(=O)N[C@@H](CCCNC(=N)N)C(=O)N[C@@H](Cc1c[nH]cn1)C(=O)N[C@@H](CO)C(=O)N[C@@H](CO)C(=O)N1CCC[C@H]1C(=O)N[C@@H](CC(N)=O)C(=O)N[C@@H](Cc1ccccc1)C(=O)NCC(=O)N[C@@H](C)C(=O)N1CCC[C@H]1C(=O)N[C@@H](CC(C)C)C(=O)N[C@@H](CO)C(=O)N[C@@H](CO)C(=O)N[C@H](C(=O)N[C@@H](CC(N)=O)C(=O)N[C@H](C(=O)NCC(=O)N[C@@H](CO)C(=O)N[C@@H](CC(=O)O)C(=O)N[C@H](C(=O)N[C@@H](Cc1ccc(O)cc1)C(N)=O)[C@@H](C)O)C(C)C)[C@@H](C)O, analogue of human amylin; also called compound 1)	2.7	12
K([γGlu-γGlu-C20 diacid])CNTATCATQRLADFLRHSSPNFGAIPSSTNVGSRTY-NH2 (disulfide 2-7; N-terminus assumed; SMILES CC[C@H](C)[C@H](NC(=O)[C@H](C)NC(=O)CNC(=O)[C@H](Cc1ccccc1)NC(=O)[C@H](CC(N)=O)NC(=O)[C@@H]1CCCN1C(=O)[C@H](CO)NC(=O)[C@H](CO)NC(=O)[C@H](Cc1c[nH]cn1)NC(=O)[C@H](CCCNC(=N)N)NC(=O)[C@H](CC(C)C)NC(=O)[C@H](Cc1ccccc1)NC(=O)[C@H](CC(=O)O)NC(=O)[C@H](C)NC(=O)[C@H](CC(C)C)NC(=O)[C@H](CCCNC(=N)N)NC(=O)[C@H](CCC(N)=O)NC(=O)[C@@H](NC(=O)[C@H](C)NC(=O)[C@@H]1CSSC[C@H](NC(=O)[C@@H](N)CCCCNC(=O)CC[C@H](NC(=O)CC[C@H](NC(=O)CCCCCCCCCCCCCCCCCCC(=O)O)C(=O)O)C(=O)O)C(=O)N[C@@H](CC(N)=O)C(=O)N[C@@H]([C@@H](C)O)C(=O)N[C@@H](C)C(=O)N[C@@H]([C@@H](C)O)C(=O)N1)[C@@H](C)O)C(=O)N1CCC[C@H]1C(=O)N[C@@H](CO)C(=O)N[C@@H](CO)C(=O)N[C@H](C(=O)N[C@@H](CC(N)=O)C(=O)N[C@H](C(=O)NCC(=O)N[C@@H](CO)C(=O)N[C@@H](CCCNC(=N)N)C(=O)N[C@H](C(=O)N[C@@H](Cc1ccc(O)cc1)C(N)=O)[C@@H](C)O)C(C)C)[C@@H](C)O, analogue of human amylin; also called compound 52)	14.1	
K([γGlu-γGlu-C20 diacid])CNTATCATQRLADFLRHSSPNFGAIPSSTNVGSDTY-NH2 (disulfide 2-7; N-terminus assumed; SMILES CC[C@H](C)[C@H](NC(=O)[C@H](C)NC(=O)CNC(=O)[C@H](Cc1ccccc1)NC(=O)[C@H](CC(N)=O)NC(=O)[C@@H]1CCCN1C(=O)[C@H](CO)NC(=O)[C@H](CO)NC(=O)[C@H](Cc1c[nH]cn1)NC(=O)[C@H](CCCNC(=N)N)NC(=O)[C@H](CC(C)C)NC(=O)[C@H](Cc1ccccc1)NC(=O)[C@H](CC(=O)O)NC(=O)[C@H](C)NC(=O)[C@H](CC(C)C)NC(=O)[C@H](CCCNC(=N)N)NC(=O)[C@H](CCC(N)=O)NC(=O)[C@@H](NC(=O)[C@H](C)NC(=O)[C@@H]1CSSC[C@H](NC(=O)[C@@H](N)CCCCNC(=O)CC[C@H](NC(=O)CC[C@H](NC(=O)CCCCCCCCCCCCCCCCCCC(=O)O)C(=O)O)C(=O)O)C(=O)N[C@@H](CC(N)=O)C(=O)N[C@@H]([C@@H](C)O)C(=O)N[C@@H](C)C(=O)N[C@@H]([C@@H](C)O)C(=O)N1)[C@@H](C)O)C(=O)N1CCC[C@H]1C(=O)N[C@@H](CO)C(=O)N[C@@H](CO)C(=O)N[C@H](C(=O)N[C@@H](CC(N)=O)C(=O)N[C@H](C(=O)NCC(=O)N[C@@H](CO)C(=O)N[C@@H](CC(=O)O)C(=O)N[C@H](C(=O)N[C@@H](Cc1ccc(O)cc1)C(N)=O)[C@@H](C)O)C(C)C)[C@@H](C)O, analogue of human amylin; also called compound 2)	3	
